Measured values as given in US20250346673A1 (DUALITY BIOLOGICS SUZHOU, published 2025).
Residue numbers refer to the chain shown, from its start. Values belong to the binder of their own block, whether it stands above or below them.

Experiments:
human FcγRIIA (H167) [1] = molecular target: T1, human FcγRIIA (H167) (human, UniProt P12318 36-218, limits assumed, biotinylated (site not stated)); test: SPR, FcγRIIA (H167); against the wild-type Fc antibody Hu033-03
T1 construct: also called Fey RIIA (H167)
T1 sequence (looked up): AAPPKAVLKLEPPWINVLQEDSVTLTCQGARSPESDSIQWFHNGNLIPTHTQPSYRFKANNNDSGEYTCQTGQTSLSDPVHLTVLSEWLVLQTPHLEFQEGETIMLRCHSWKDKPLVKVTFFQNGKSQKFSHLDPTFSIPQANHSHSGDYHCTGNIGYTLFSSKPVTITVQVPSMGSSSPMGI
Experimental: (§1) Antibody kinetics or affinity parameters were measured using BIAcore 8K and freshly fixed biotinylated human Fe γ RIIA(R167)/Fc γ RIIA (H167) SA chips. The experiment was run at 25° C. with a running buffer of 1×HBS-EP+(10 mM HEPES pH 7.4, 150 mM NaCl, 3 mM EDTA, 0.05% Surfactant P20). […] The binding and dissociation times of the antibody were 60 and 90 seconds, respectively. Two zero concentration samples are used to remove background signals. The sample was injected in a multi cycle manner, the analyte can be fully dissociated from the chip surface at the end of each cycle, and no regeneration step was applied. Data analysis was perform using Biacore Insight Evaluation Software (Version 2.0.15.12933). After deducting the reference channel (flow cell 1) and two zero concentration signals, affinity analysis was performed using a 1:1 binding model or steady-state model for curve fitting and calculation of kinetic parameters.

human FcγRIIA (R167) [2] = molecular target: T2, human FcγRIIA (R167) (human, UniProt P12318 36-218, limits assumed, biotinylated (site not stated)); test: SPR (BIAcore 8K), biotinylated FcγRIIA (R167) on SA chip, antibody as analyte, 1:1 binding
T2 construct: also called Fe γ RIIA(R167); Fcγ RIJA (R167)
T2 sequence (looked up): T1 sequence (looked up) with H132R
Experimental: as §1

human FcγRIIA (R167) [3] = molecular target: T2, human FcγRIIA (R167); test: SPR, FcγRIIA (R167); against the wild-type Fc antibody Hu033-03
Experimental: as §1

human FcγRIIA (H167) [4] = molecular target: T1, human FcγRIIA (H167); test: SPR (BIAcore 8K), biotinylated FcγRIIA (H167) on SA chip, antibody as analyte, 1:1 binding
Experimental: as §1

human FcγRIIA (R167) [5] = molecular target: T2, human FcγRIIA (R167); test: SPR, FcγRIIA (R167); against the wild-type Fc antibody Hu033-20
Experimental: as §1

human FcγRIIA (H167) [6] = molecular target: T1, human FcγRIIA (H167); test: SPR, FcγRIIA (H167); against the wild-type Fc antibody Hu033-20
Experimental: as §1

human BDCA2 [7] = molecular target: T3, human BDCA2 (human, UniProt Q8WTT0 1-213); test: FACS on CHOK1-hBDCA2 cells; EC50 table under the plot, unit from the x axis (nM) [continued) e.]
T3 construct: whole, on cells; also called hBDCA2; Blood dendritic cell antigen 2
T3 sequence (looked up): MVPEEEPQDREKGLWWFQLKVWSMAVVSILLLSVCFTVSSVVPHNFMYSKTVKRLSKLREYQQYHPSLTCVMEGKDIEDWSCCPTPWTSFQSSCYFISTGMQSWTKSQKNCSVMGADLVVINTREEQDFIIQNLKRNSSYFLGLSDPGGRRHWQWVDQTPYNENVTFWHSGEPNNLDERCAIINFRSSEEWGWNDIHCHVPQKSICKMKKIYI
Experimental: (§2) The cells were recovered and resuspended to 2×10⁶/mL with FACS buffer (PBS+2% FBS). The cells were added to 3799 cell plates (Corning) at 100 μL/well, and the supernatant was discarded after centrifugation at 300 g. The antibodies were serially diluted with FACS buffer (Id.), the diluted antibodies were added to centrifuged cells and the cells were resuspended. The cells were incubated at 4° C. for 1 h. The incubated cells were then centrifuged at […] for 5 min and washed twice with FACS buffer. 100 μL Donkey anti-Mouse IgG (H+L) Highly Cross-Adsorbed Secondary Antibody-Alexa Fluor 488 (Invitrogen, A21202; 1:1000) secondary antibody was added to the cells, which were washed twice with FACS buffer after incubation at 4° C. for 1 h, resuspended with PBS, analyzed with FACS (BD FACS CantoTM II) instrument. The curve was fitted with GraphPad Prism6, and EC₅₀ values were calculated.

[8] = molecular target: T4, Human BDCA2 Fc recombinant protein (human); test: ELISA, coated humanBDCA2 Fc
T4 construct: Human IgG1 Fc N-terminal of the BDCA2 extracellular domain (Asn45-Ile213), fused by a linker; also called BDCA2-Fc protein
Experimental: HumanBDCA2 Fc protein or cynoBDCA2 His protein was diluted with PBS to 1 μg/mL and added to ELISA microplates at 100 μL/well and incubated at 4° C. overnight. The plates were blocked with ELISA blocking solution (PBS phosphate buffer with 1% BSA, pH 7.4, the percentages representing mass percentages) at 37° C. for 2 hours. Sequential 10-fold serial dilutions of antibodies were added at 8 concentrations (0.0001 nM-100 nM, including 0 point control) in total at 100 μL/well. The plates were incubated at 37° C. for 1 hour, then washed 3 times and after anti-mouse IgG (Fab specific)-HRP (Sigma, A3682; 1: 5000 dilution) secondary antibodies were added at 100 μL/well, were incubated at 37° C. for 1 h. The plates were washed 3 times, TMB development fluid (EL0009, Huzhou Ying Chuang Biotechnology) was added at 100 μL/well and 50 μL 1N hydrochloric acid was added after incubation at 37° C. for 10 min to stop the development reaction. OD450 nm values were read with ELISA plate reader and the curve was fitted with GraphPad Prism6, and EC₅₀ values were calculated.

cynomolgus BDCA2 = molecular target: T5, cynomolgus BDCA2 (cynomolgus monkey, UniProt A0A2K5UWP4 1-212); test: FACS on 293F-cynoBDCA2 cells; EC50 table under the plot, unit from the x axis (nM) [continued) e.]
T5 construct: whole, on cells; also called Cyno BDCA2; cynoBDCA2
T5 sequence: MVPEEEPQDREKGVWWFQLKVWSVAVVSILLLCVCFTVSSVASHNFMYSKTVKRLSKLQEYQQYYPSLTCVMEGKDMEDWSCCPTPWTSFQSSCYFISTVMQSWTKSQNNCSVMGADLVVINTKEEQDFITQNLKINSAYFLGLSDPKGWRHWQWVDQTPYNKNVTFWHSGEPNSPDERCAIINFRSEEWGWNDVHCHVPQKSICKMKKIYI
Experimental: as §2

human BDCA2 [9] = molecular target: T3, human BDCA2; test: cell-based or functional assay
human BDCA2 [10] = molecular target: T3, human BDCA2; test: FACS on CHOK1-hBDCA2 cells; EC50 table under the plot, unit from the x axis (nM)
Experimental: The cells were recovered and resuspended to 2×10⁶/mL with FACS buffer (PBS+2% FBS). The cells were added to 3799 cell plates (Corning) at 100 μL/well, and the supernatant was discarded after centrifugation at 300 g. The antibodies were serially diluted with FACS buffer (Id.), the diluted antibodies were added to centrifuged cells and the cells were resuspended. The cells were incubated at 4° C. for 1 h. The incubated cells were centrifuged at 300 g for 5 min and washed twice with FACS buffer. 100 μL […] anti-Human IgG (H+L) Cross-Adsorbed Secondary Antibody-Alexa Fluor 488 (Sigma, A11013; 1:1000) secondary antibody was added, washed twice with FACS buffer after incubation at 4° C. for 1 h, resuspended with PBS, analyzed with FACS (BD FACS CantoTM II) instrument and curve fitted with GraphPad Prism6, and EC₅₀ values were calculated.

- Multiple of affinity (human FcγRIIA (H167) [1]): 7.3 fold
- Kd (human FcγRIIA (R167) [2]): 303 nM
- koff (human FcγRIIA (R167) [2]): 0.225 s⁻¹
- kon (human FcγRIIA (R167) [2]): 741000 M⁻¹ s⁻¹
- Multiple of affinity (human FcγRIIA (R167) [3]): 4.4 fold
- Kd (human FcγRIIA (H167) [4]): 162 nM
- koff (human FcγRIIA (H167) [4]): 0.0894 s⁻¹
- kon (human FcγRIIA (H167) [4]): 551000 M⁻¹ s⁻¹
B1: Hu033-03-T3 (antibody, human IgG1, kappa)
heavy: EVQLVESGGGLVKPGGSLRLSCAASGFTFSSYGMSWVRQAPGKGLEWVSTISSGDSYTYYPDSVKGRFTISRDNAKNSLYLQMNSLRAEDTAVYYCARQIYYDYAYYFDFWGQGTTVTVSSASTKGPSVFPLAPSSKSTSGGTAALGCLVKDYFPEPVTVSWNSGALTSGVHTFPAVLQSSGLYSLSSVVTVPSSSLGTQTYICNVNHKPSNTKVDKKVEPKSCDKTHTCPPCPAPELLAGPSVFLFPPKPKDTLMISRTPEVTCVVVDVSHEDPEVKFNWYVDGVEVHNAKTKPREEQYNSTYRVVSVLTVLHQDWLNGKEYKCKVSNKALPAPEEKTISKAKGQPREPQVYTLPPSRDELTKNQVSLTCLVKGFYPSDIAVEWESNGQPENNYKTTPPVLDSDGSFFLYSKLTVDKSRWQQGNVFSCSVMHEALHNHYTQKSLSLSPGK
light: DIVLTQSPASLAVSPGQRATITCRASESVSFRTSHLMHWYQQKPGQPPKLLIYGASNLESGVPARFSGSGSETDFTLTINPVEAEDTANYFCQQSIEDPPTFGGGTKVEIKRTVAAPSVFIFPPSDEQLKSGTASVVCLLNNFYPREAKVQWKVDNALQSGNSQESVTEQDSKDSTYSLSSTLTLSKADYEKHKVYACEVTHQGLSSPVTKSFNRGEC
notes: Fc-mutated Hu033-03 (IgG1)

- Kd (human FcγRIIA (R167) [2]): 312 nM
- koff (human FcγRIIA (R167) [2]): 0.249 s⁻¹
- kon (human FcγRIIA (R167) [2]): 798000 M⁻¹ s⁻¹
- Multiple of affinity (human FcγRIIA (R167) [5]): 5.1 fold
- Kd (human FcγRIIA (H167) [4]): 489 nM
- koff (human FcγRIIA (H167) [4]): 0.242 s⁻¹
- kon (human FcγRIIA (H167) [4]): 494000 M⁻¹ s⁻¹
- Multiple of affinity (human FcγRIIA (H167) [6]): 2.5 fold
B2: Hu033-20-T1 (antibody, human IgG1, kappa)
heavy: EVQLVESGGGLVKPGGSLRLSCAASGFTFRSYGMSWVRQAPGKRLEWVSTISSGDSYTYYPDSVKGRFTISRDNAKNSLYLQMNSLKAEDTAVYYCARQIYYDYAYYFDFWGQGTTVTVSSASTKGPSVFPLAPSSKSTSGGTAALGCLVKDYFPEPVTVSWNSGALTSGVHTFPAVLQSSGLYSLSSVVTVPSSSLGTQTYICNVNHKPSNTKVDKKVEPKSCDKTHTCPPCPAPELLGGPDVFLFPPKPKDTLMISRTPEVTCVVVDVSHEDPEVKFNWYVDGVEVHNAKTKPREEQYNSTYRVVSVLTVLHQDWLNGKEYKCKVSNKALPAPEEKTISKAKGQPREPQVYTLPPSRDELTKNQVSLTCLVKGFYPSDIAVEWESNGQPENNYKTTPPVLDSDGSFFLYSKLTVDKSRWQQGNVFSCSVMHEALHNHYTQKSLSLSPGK
light: DIVMTQSPDSLAVSLGERATINCRASESVSFRTSHLMHWYQQKPGQPPKLLIYGASNLESGVPDRFSGSGSGTDFTLTISSLQAEDVAVYYCQQSIEDPPTFGGGTKVEIKRTVAAPSVFIFPPSDEQLKSGTASVVCLLNNFYPREAKVQWKVDNALQSGNSQESVTEQDSKDSTYSLSSTLTLSKADYEKHKVYACEVTHQGLSSPVTKSFNRGEC
notes: Fc-mutated Hu033-20 (IgG1)

- Kd (human FcγRIIA (R167) [2]): 279 nM
- koff (human FcγRIIA (R167) [2]): 0.191 s⁻¹
- kon (human FcγRIIA (R167) [2]): 683000 M⁻¹ s⁻¹
- Multiple of affinity (human FcγRIIA (R167) [5]): 6.3 fold
- Kd (human FcγRIIA (H167) [4]): 154 nM
- koff (human FcγRIIA (H167) [4]): 0.087 s⁻¹
- kon (human FcγRIIA (H167) [4]): 563000 M⁻¹ s⁻¹
- Multiple of affinity (human FcγRIIA (H167) [6]): 8.7 fold
B3: Hu033-20-T3 (antibody, human IgG1, kappa)
heavy: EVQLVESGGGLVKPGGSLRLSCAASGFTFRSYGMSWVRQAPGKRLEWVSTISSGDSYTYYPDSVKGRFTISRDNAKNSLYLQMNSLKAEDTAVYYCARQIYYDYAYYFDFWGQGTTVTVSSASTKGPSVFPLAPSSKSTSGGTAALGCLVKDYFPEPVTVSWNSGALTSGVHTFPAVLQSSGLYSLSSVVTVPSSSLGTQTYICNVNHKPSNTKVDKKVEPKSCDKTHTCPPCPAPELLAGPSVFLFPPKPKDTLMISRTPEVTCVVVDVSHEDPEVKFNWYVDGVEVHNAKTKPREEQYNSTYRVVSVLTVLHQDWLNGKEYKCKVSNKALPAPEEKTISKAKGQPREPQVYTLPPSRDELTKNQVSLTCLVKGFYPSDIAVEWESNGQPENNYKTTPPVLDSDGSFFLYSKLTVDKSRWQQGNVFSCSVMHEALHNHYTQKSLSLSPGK
light: B2 light
notes: Fc-mutated Hu033-20 (IgG1)

- Kd (human FcγRIIA (R167) [2]): 41.1 nM
- koff (human FcγRIIA (R167) [2]): 0.0821 s⁻¹
- kon (human FcγRIIA (R167) [2]): 2e+06 M⁻¹ s⁻¹
- Multiple of affinity (human FcγRIIA (R167) [5]): 17.7 fold
- Kd (human FcγRIIA (H167) [4]): 95.5 nM
- koff (human FcγRIIA (H167) [4]): 0.0577 s⁻¹
- kon (human FcγRIIA (H167) [4]): 604000 M⁻¹ s⁻¹
- Multiple of affinity (human FcγRIIA (H167) [6]): 12.1 fold
B4: Hu033-20-T2 (antibody, human IgG1, kappa)
heavy: EVQLVESGGGLVKPGGSLRLSCAASGFTFRSYGMSWVRQAPGKRLEWVSTISSGDSYTYYPDSVKGRFTISRDNAKNSLYLQMNSLKAEDTAVYYCARQIYYDYAYYFDFWGQGTTVTVSSASTKGPSVFPLAPSSKSTSGGTAALGCLVKDYFPEPVTVSWNSGALTSGVHTFPAVLQSSGLYSLSSVVTVPSSSLGTQTYICNVNHKPSNTKVDKKVEPKSCDKTHTCPPCPAPELLAGPDVFLFPPKPKDTLMISRTPEVTCVVVDVSHEDPEVKFNWYVDGVEVHNAKTKPREEQYNSTYRVVSVLTVLHQDWLNGKEYKCKVSNKALPAPEEKTISKAKGQPREPQVYTLPPSRDELTKNQVSLTCLVKGFYPSDIAVEWESNGQPENNYKTTPPVLDSDGSFFLYSKLTVDKSRWQQGNVFSCSVMHEALHNHYTQKSLSLSPGK
light: B2 light
notes: Fc-mutated Hu033-20 (IgG1)

- EC50 (human BDCA2 [7]): 0.705 nM
- EC50 [8]: < 0.3 nM
- EC50 (cynomolgus BDCA2): 1.96 nM
B5: mAb034 (antibody, V domains shown)
VH: DVQLQESGPGLVKPSQSLSLTCSVTGYSITSGYYWNWIRQFPGNKLECMGYITYDGSNNYNPSLKDRISITRDTSKNQFFLKLNSVTTEDTATYYCARGGDYDDGGFAYWGHGTLVTVSA
VL: DIQMTQSPVSLSASVGETVTITCRASGNIHNYLAWYQQKQGKSPQLLVYNAKSLVDGVPSRFSGSGSGTQYSLKINSLQPEDFGSYYCQHFWIIPYTFGGGTKLEIK
notes: Mouse hybridoma antibody

- IC50 for inhibiting cytokine IFNα release, CpG-A stimulated human PBMC (human BDCA2 [9]): 0.00408 nM
- EC50 (human BDCA2 [7]): 0.388 nM
- EC50 (cynomolgus BDCA2): 1.18 nM
B6: mAb033 (antibody, V domains shown)
VH: EVQMVESGGDLVKPGDSLKLSCAASGFTFRSYGMSWVRQTPDKRLEWVATISSGDSYTYYPDSVKGRFTISRDNAKNTLYLQMSSLKSEDTALYYCARQIYYDYAYYFDFWGQGTTLTVSS
VL: DIVLTQSPASLAVSLGQRATISCRASESVSFRTSHLMHWYQQKPGQPPKLLIYGASNLESGVPARFSGSGSETDFTLNIHPVEEEDAAAYFCQQSIEDPPTFGGGTKLEIK
notes: Mouse hybridoma antibody

- EC50 (human BDCA2 [10]): 1.9 nM
B7: mab001c (antibody, V domains shown)
VH: QIQLVQSGPELKKPGETVKISCKASGYTFTDFSMHWVKQAPGKGLKWMGWINTETGEPTYADDFKGRFAFSLETSASTAFLQINNLKNDDTTTYFCSRGGDGHPYWYFAVWGAGTTVTVSS
VL: DIVLTQSPASLAVSLGQRATISCRASQSVSTSSYSYMHWYQQKPGQPPKLLIKYASILESGVPARFSGSGSGTDFTLNIHPVEEEDTATYYCQHSWEIPFTFGSGTKLEIK
